Data: article doi:10.1101/144295, “Human PRDM9 can bind and activate promoters, and other zinc-finger proteins associate with reduced recombination in cis” (bioRxiv, 2017)

Biological target: the molecule itself
Experiment: co-IP; competitive co-IP: HEK293T transfected with equimolar DNA of three constructs (one bait with one tag, Human and Chimp prey with the other tag); IP against the bait's tag, western blot against the prey's tag; replicated with reversed tags

B1: full-length human PRDM9 (B allele), C-terminally tagged with HA or V5 (natural protein)
chain: not shown
notes: 218 synonymous base changes in the zinc finger exon; An HA and a V5 version were made; The C-terminal cassette is linker-TwinStrep-linker-HA/V5-linker-P2A followed by YFP; vector pLENTI CMV/TO Puro DEST (Addgene plasmid # 17293); YFP probably separates at the P2A site (surmised); also called Human-HA; Human-V5; source: HEK293T, transfected (FuGENE-HD), in lysate; not shown: HA or V5, C-terminal, …
- fold more efficiently co-precipitated than the Chimp prey (Human bait): > 2 fold
